Experimental data reported in patent publication US20200407435A1 (Boehringer Ingelheim, published 2020).
Changes are numbered by the printed parent chain. Several values for one entry are separate records, joined by “and”; a condition that tells them apart may be missing. Identical values can stand only once.

T1: rhAngiopoietin-2 (R&D systems cat 623-AN/CF) (human, UniProt O15123 19-496, limits assumed)
T1 sequence (looked up): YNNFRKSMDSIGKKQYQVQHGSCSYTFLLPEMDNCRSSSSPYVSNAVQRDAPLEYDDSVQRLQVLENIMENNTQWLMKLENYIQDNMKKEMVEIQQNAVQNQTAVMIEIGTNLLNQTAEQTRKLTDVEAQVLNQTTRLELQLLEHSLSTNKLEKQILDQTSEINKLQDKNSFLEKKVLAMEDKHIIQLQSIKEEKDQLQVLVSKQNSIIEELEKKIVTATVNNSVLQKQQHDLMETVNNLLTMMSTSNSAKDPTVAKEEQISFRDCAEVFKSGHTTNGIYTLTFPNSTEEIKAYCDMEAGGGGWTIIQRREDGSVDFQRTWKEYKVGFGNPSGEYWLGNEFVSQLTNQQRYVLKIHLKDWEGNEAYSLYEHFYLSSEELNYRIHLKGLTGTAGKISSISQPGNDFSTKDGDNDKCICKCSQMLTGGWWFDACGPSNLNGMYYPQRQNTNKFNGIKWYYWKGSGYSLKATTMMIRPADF

T2: rat ANGPT2 (rat, UniProt O35462 275-496, limits assumed)
T2 construct: domain: FLD domain; also called rat ANGPT2 FLD domain
T2 sequence (looked up): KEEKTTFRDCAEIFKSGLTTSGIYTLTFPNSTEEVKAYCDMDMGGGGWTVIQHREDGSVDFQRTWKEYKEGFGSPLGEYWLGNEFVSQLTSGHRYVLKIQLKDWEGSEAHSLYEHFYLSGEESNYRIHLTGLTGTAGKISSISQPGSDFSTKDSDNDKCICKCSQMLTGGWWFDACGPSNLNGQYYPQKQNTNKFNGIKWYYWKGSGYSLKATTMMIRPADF

T3: Human ANGPT2 Dimer (CC-FLD) (human, UniProt O15123 74-496, limits assumed)
T3 construct: domain: CC-FLD; also called ANGPT2 protein with His-tag; not shown: His-tag
T3 sequence (looked up): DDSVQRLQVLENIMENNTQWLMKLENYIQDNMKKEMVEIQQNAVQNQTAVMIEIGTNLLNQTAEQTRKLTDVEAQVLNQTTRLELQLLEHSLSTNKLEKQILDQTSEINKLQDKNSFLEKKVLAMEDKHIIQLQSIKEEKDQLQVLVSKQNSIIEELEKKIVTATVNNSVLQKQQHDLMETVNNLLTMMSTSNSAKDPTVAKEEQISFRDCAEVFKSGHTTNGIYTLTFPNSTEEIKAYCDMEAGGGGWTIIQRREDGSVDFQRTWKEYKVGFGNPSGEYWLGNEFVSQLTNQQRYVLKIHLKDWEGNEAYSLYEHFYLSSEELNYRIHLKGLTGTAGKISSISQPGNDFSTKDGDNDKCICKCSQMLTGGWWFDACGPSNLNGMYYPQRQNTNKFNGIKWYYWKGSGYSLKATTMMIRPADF

T4: human ANGPT2 (SPR analyte) (human, UniProt O15123 275-496, limits assumed)
T4 construct: domain: FLD domain; also called HuANGPT2; human ANGPT2 FLD domain
T4 sequence (looked up): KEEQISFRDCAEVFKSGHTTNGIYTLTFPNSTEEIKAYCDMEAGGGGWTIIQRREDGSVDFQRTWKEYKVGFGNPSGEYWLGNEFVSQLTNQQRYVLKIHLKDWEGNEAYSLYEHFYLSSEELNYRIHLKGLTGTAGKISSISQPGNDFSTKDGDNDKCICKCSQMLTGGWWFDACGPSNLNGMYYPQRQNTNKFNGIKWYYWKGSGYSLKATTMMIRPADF

T5: cynomolgus (cyno) ANGPT2 (cynomolgus, UniProt A0A2K5VNX6 275-496)
T5 construct: domain: FLD domain; also called cyno ANGPT2 FLD domain
T5 sequence: T4 sequence (looked up) with E2G, I23V, F28L, I35V, G154A, A212G, D221G

B1: LC06 (Roche) (antibody, human IgG1, lambda, V domains shown)
VH: not shown
VL: QPGLTQPPSVSVAPGQTARITCGGNNIGSKSVHWYQQKPGQAPVLVVYDDSDRPSGIPERFSGSNSGNTATLTISRVEAGDEADYYCQVWDSSSDHYVFGTGTKVTVLG
notes: Based on the description in U.S. Pat. No. 9,340,609
B2: ANGPT2-opt-31 (humanized) (antibody, human IgG1, kappa, V domains shown)
VH: QVQLVQSGAEVKKPGSSVKVSCKASGYIFIDYFINWVRQAPGQGLEWMGKIGPGSGSSSSNEKFKGRVTITADKSTSTAYMELSSLRSEDTAVYYCAREAFDYDGDYYGMAYWGQGTLVTVSS
VL: EIVMTQSPATLSVSPGERATLSCKSSQSLLSSGNQKSFLAWYQQKPGQAPRLLIYGASTRESGIPARFSGSGSGTEFTLTISSLQSEDFAVYYCQNDHSYPITFGQGTKLEIKR
notes: also called Ang2-opt-31
B3: ANGPT2-opt-19 (humanized) (antibody, human IgG1, kappa, V domains shown)
VH: B2 VH
VL: B2 VL with K24R, S25A, L29V, S62T, N96Q
notes: also called Ang2-opt-19
B4: ANGPT2-opt-2 (humanized) (antibody, human IgG1, kappa, V domains shown)
VH: B2 VH with D31E, D104E
VL: B2 VL with S31A, S37N
notes: also called Ang2-opt-2; ANGP12-opt-2
B5: ANGPT2-opt-1 (humanized) (antibody, human IgG1, kappa, V domains shown)
VH: B2 VH with D104E
VL: B2 VL with S31A, S37N
notes: also called Ang2-opt-1
B6: MEDI3617 analog (Medimmune) (antibody, human IgG1, kappa, V domains shown)
VH: QVQLVESGGGVVQPGRSLRLSCAASGFTFTNYGMHWVRQAPGKGLEWVAVISHDGNNKYYVDSVKGRFTISRDNSKNTLYLQMNSLRAEDTAVYYCAREGIDFWSGLNWFDPWGQGTLVTVSS
VL: EIVLTQSPGTLSLSPGERATLSCRASQSITGSYLAWYQQKPGQAPRLLITGASSWATGIPDRFSGSGSGTDFTLTISRLEPEDFAVYYCQQYSSSPITFGQGTRLEIKR
notes: Based on the description in U.S. Pat. No. 8,507,656; also called MED3617 analog; analog of MED3617
B7: Nesvacumab analog (Regeneron) (antibody, V domains shown)
VH: EVQLVESGGGLVQPGGSLRLSCAASGFTFSSYDIHWVRQATGKGLEWVSAIGPAGDTYYPGSVKGRFTISRENAKNSLYLQMNSLRAGDTAVYYCARGLITFGGLIAPFDYWGQGTLVTVSS
VL: EIVLTQSPGTLSLSPGERATLSCRASQSVSSTYLAWYQQKPGQAPRLLIYGASSRATGIPDRFSGSGSGTDFTLTISRLEPEDFAVYYCQHYDNSQTFGQGTKVEIKR
notes: also called analog of REGN910 (nesvacumab); Nevescumab analog
B8: chimeric lead CL-209881 (antibody, V domains shown)
VH: QVQLKQSGAELVKPGSSVKISCRASGYIFIDYFINWVKQRPGQGLEWIGKIGPGSGSSSSNEKFKGKATLTADKSSSTAYMQLSSLTSEDSAVYFCAREAFDYDGDYYGMAYWGQGTSVTVSS
VL: DIVMTQSPSSLSVSAGEKVTMSCKSSQSLLNSGNQKNFLAWYQQKPGQPPKLLIYGASTRESGVPDRFTGSGSGTDFTLTITSVQAEDLAVYYCQNDHSYPITFGSGTKLEIK
notes: Chimeric antibody with murine variable domains; the constant regions of the tested antibody are not

Biological target: T1, rhAngiopoietin-2 (R&D systems cat …)
Experiment: cell-based or functional assay

Going from B1 to B6, the “Tie2 phosphorylation functional assay, EC50” value rises from 1.3 nM to 2.7 nM (2.1-fold).

B2 was tested, and the “Tie2 phosphorylation functional assay, EC50” value was 3.8 nM and 4.4 nM.
With B3 the “Tie2 phosphorylation functional assay, EC50” value was 5 nM and 4.6 nM.
In the case of B4, the “Tie2 phosphorylation functional assay, EC50” value is reported as 1.8 nM and 1.9 nM.
For B5, the “Tie2 phosphorylation functional assay, EC50” value was 3 nM and 3.2 nM.

Biological target: T2, rat ANGPT2
Experiment: SPR (ProteOn XPR36), antibody captured on Protein A/G, rat ANGPT2 as analyte
Experimental: (§1) The binding affinity to the various ANGPT2 analytes is determined by surface plasmon resonance (SPR) using a ProteOn XPR36 (Bio-Rad). Unless otherwise stated, all reagents are obtained from Bio-Rad. The running buffer for all assays and dilutions (except where stated) is phosphate buffered saline (PBS)/ethylenediamine tetraacetic acid (EDTA) with 0.01% Tween20 (PBS-T-EDTA). PBS-T-EDTA is prepared by adding 100 μl of 100% Tween20 to 2 L of PBS-T-EDTA with an initial concentration of 0.005% Tween20 to make a final Tween20 concentration of 0.01%. The general linearized model (GLM) sensorchip is normalized, pre-conditioned, and activated with an equal mixture of 1-ethyl-3-[3-dimethylaminopropyl]carbodiimide (EDC)/N-hydroxysulfosuccinimide (s-NHS) in the horizontal direction for 300 sec at a flow rate of 30 μl/min. Immobilization is then is done with Recombinant Protein A/G (Thermo Scientific) (60 μg/ml in 10 mM acetate pH 4.5) in the horizontal direction for 300 sec at a flowrate of 30 μl/min resulting in about 4370-4875 response units (RUs) of Protein A/G on the surface. The sensorchip is then deactivated with 1M ethanolamine HCl in the horizontal direction for 300 sec at a flowrate of 30 μl/min. The sensorchip is stabilized with 18 sec of 0.85% phosphoric acid at a flowrate of 100 μl/min 3 times horizontally and 3 times vertically.
Each ANGPT2 antibody is captured on the Protein A/G surface vertically for 300 sec at a flowrate of 30 μl/min resulting in a capture level of about 2500 RU. The baseline is stabilized by injecting PBS-T-EDTA for 60 sec at a flowrate of 100 μl/min horizontally with dissociation of 120 sec. The analyte (e.g., HuANGPT2) is injected horizontally over the captured antibody for 300 sec at a flowrate of 30 μl/min and a dissociation for 1800 sec. […] The surface is regenerated by injecting 0.85% phosphoric acid for 18 sec at a flowrate of 100 μl/min one time horizontally and one time vertically. PBS-T-EDTA is injected for 60 sec at a flowrate of 100 μl/min one time vertically and one time horizontally. […]

B3 and B4 cannot be ordered by Kd: at least 118 nM for the first, at least 118 nM for the second.

B7 gave a Kd of 0.159 nM.

Biological target: T3, Human ANGPT2 Dimer (CC-FLD)
Experiment: flow cytometry blocking assay: antibody titrated against His-tagged human ANGPT2 dimer (CC-FLD) binding to HEK293 human Tie2 cells
Experimental: Human ANGPT2 Dimer (CC-FLD) is pre-incubated with the testing antibodies. The ANGPT2/Antibody mixture is then incubated with HEK293 human Tie2 cells at 4° C. After washing, the cells are stained with anti-His-AF647 (from GenScript) for detection of the His-tag on the ANGPT2 protein. The binding of the secondarily labelled ANGPT2 to human Tie2 cells is detected by FLOW cytometry. The average of the duplicate values for each concentration point is used to derive the curve fit graphs. Antibodies that prevent ANGPT2 from binding to the Tie2 cells are considered blocking antibodies. The results are shown in FIGS. 3A-3G and the EC50 values are shown in Table 5 based on the average of duplicate values.

B2 and B3 are within 1.5-fold of each other in EC50: 13 nM for the first, 15.1 nM for the second.

B4 and B5 are within 1.5-fold of each other in EC50: 14.8 nM for the first, 13.2 nM for the second.

Biological target: T4, human ANGPT2 (SPR analyte)
Experiment: SPR (ProteOn XPR36), antibody captured on Protein A/G, ANGPT2 as analyte, 1:1 Langmuir fit
Experimental: as §1
(§2) Each ANGPT2 antibody is captured on the Protein A/G surface vertically for 300 sec at a flowrate of 30 μl/min resulting in a capture level of about 2500 RU. The baseline is stabilized by injecting PBS-T-EDTA for 60 sec at a flowrate of 100 μl/min horizontally with dissociation of 120 sec. The analyte (e.g., HuANGPT2) is injected horizontally over the captured antibody for 300 sec at a flowrate of 30 μl/min and a dissociation for 1800 sec. […] The surface is regenerated by injecting 0.85% phosphoric acid for 18 sec at a flowrate of 100 μl/min one time horizontally and one time vertically. PBS-T-EDTA is injected for 60 sec at a flowrate of 100 μl/min one time vertically and one time horizontally.
(§3) The interspot (interactions with sensor surface) and blank (PBS-T-EDTA with 0.01% Tween20 or 0 nM of analyte (here HuANGPT2)) are subtracted from the raw data.

First: B1
Second: B2
The Kd of the first is 130-fold higher: 12 nM for the first, 0.091 nM for the second. The second binds more tightly here.

B3 and B4 are within 1.5-fold of each other in Kd: 0.712 nM for the first, 0.649 nM for the second.

Going from B5 to B6, the Kd rises from 0.294 nM to 27 nM (92-fold).

Work on B8 yielded a Kd of 0.155 nM.

Going from B2 to B3, the koff rises from 1.14e-05 s⁻¹ to 5.83e-05 s⁻¹ (5.1-fold).

Compared with B4, B5 is 1.9-fold lower in koff: 8.11e-05 s⁻¹ for the first, 4.25e-05 s⁻¹ for the second.

Going from B6 to B8, the koff falls from 0.0166 s⁻¹ to 2.34e-05 s⁻¹ (710-fold).

Compared with B2, B3 is 1.5-fold lower in kon: 125000 M⁻¹ s⁻¹ for the first, 81800 M⁻¹ s⁻¹ for the second.

B4 and B5 are within 1.5-fold of each other in kon: 125000 M⁻¹ s⁻¹ for the first, 144000 M⁻¹ s⁻¹ for the second.

Compared with B6, B8 is 4.1-fold lower in kon: 614000 M⁻¹ s⁻¹ for the first, 151000 M⁻¹ s⁻¹ for the second.

Biological target: T5, cynomolgus (cyno) ANGPT2
Experiment: as above
Experimental: as §1, §2, §3

Going from B2 to B3, the Kd rises from 0.145 nM to 0.844 nM (5.8-fold).

First: B4
Second: B5
The Kd of the first is 1.7-fold higher: 0.626 nM for the first, 0.36 nM for the second. The second binds more tightly here.

In the case of B8, the Kd is reported as 0.24 nM.

Compared with B2, B3 is 3.8-fold higher in koff: 1.96e-05 s⁻¹ for the first, 7.4e-05 s⁻¹ for the second.

First: B4
Second: B5
The koff of the first is 1.5-fold higher: 8.45e-05 s⁻¹ for the first, 5.48e-05 s⁻¹ for the second.

B8 was tested, and the koff was 3.93e-05 s⁻¹.

First: B2
Second: B3
The kon of the first is 1.5-fold higher: 135000 M⁻¹ s⁻¹ for the first, 87700 M⁻¹ s⁻¹ for the second.

B4 and B5 are within 1.5-fold of each other in kon: 135000 M⁻¹ s⁻¹ for the first, 152000 M⁻¹ s⁻¹ for the second.

For B8, the kon was 164000 M⁻¹ s⁻¹.
